The values that follow are results of earlier work, collected in article PMC8480781.

For data set [1], the target named is Glu66 (UniProt position 148, FTKKMEENAKK). Nature of the data set: stability. The following applies: PHS V66E; state not stated.
Data set [2] concerns the target Lys66 (UniProt position 148, FTKKMKENAKK). Nature of the data set: potentiometry. The following applies: PHS V66K; state not stated.

As for “Staphylococcal nuclease PHS V66E (Staphylococcus aureus; P117G;H124L;S128A;V66E)”, in data set [1], the pKa was 8.73–9.28. On to “Staphylococcal nuclease PHS V66K (Staphylococcus aureus; P117G;H124L;S128A;V66K)”, for which the pKa in data set [2] is 6.25–6.45.
